Results taken from the RNAGym collection of RNA variant scans (doi:10.1093/nar/gkz1192).

B1: CPEB3 Ribozyme (parent)
chain: UAACAGGGGGCCACAGCAGAAGCGUUCACGUCGCAGCCCCUGUCAGAUUCUGGUGAAUCUGCGAAUUCUGCUGUAUAUCUC

Variants of: B1
Experiment: self-cleavage, relative activity (ratio to wild type); higher = more cleavage; in vitro, sequencing
How it was run: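 After error-prone PCR and barcoding, CPEB3 ribozyme mutant libraries were transcribed with T7 RNA polymerase at 37°C for 5 hours, then given 15 min with DNase I before an EDTA stop, and they cleaved during both steps. Reverse transcription with template switching preceded Illumina sequencing. Relative activity divides a variant's cleaved/total read fraction by the unmutated ribozyme's. At least 5 reads were required per variant, and three batches were averaged.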

Row | Variant | self-cleavage
1 | G36A C59U | 0.31
2 | G36A G55A | 0.09
3 | G36C U43C | 0.28
4 | G36C A57U | 0.13
5 | A35U U76A | 0.65
6 | A35U U76C | 0.52
7 | G36U A75G | 0.11
8 | G36A U41C | 0.56
9 | G36A U41A | 0.18
10 | G36C U66C | 0.23
11 | G36C U69C | 0.11
12 | A35U G63A | 0.27
13 | A35U G63C | 0.45
14 | A35U G63U | 0.52
15 | A35U G73A | 0.88
16 | G36C C62U | 0.15
17 | G36C U51C | 0.39
18 | G36C U51A | 0.16
19 | G36U A57G | 0.48
20 | A35U G55U | 0.43
21 | A35U G55C | 0.47
22 | G36U A65U | 0.06
23 | G36U A65G | 0.39
24 | A35U U80C | 0.63

Row | Variant | self-cleavage
25 | A35U U80G | 0.65
26 | A35U U80A | 0.58
27 | G36A A77C | 0.48
28 | G36A A77G | 0.17
29 | G36A U43C | 0.29
30 | G36U U67A | 0.64
31 | G36A U78C | 0.23
32 | G36A U66C | 0.33
33 | G36A C50A | 0.25
34 | G36C U49A | 0.17
35 | G36A A45U | 0.27
36 | G36A A45G | 0.21
37 | G36C U78C | 0.14
38 | G36U A77U | 0.19
39 | G36U A77G | 0.12
40 | G36A U54C | 0.25
41 | G36A U54A | 0.31
42 | G36A U69A | 0.32
43 | G36A U69C | 0.27
44 | A35U U69C | 0.23
45 | A35U U69A | 0.26
46 | A35U U69G | 0.26
47 | G36A U49C | 0.21
48 | G36C A65G | 0.13

Row | Variant | self-cleavage
49 | G36U A47G | 0.11
50 | G36U A47U | 0.08
51 | G36A A56G | 0.19
52 | G36A U80A | 0.13
53 | G36A U80C | 0.34
54 | G36C G61U | 0.12
55 | G36C G61C | 0.14
56 | G36C C38U | 0.27
57 | G36C C38A | 0.16
58 | G36A U67C | 0.13
59 | G36U U54C | 0.26
60 | G36C U60A | 0.08
61 | G36C U60C | 0.13
62 | G36C A45U | 0.14
63 | G36C A45G | 0.17
64 | A35U U43G | 0.15
65 | A35U U43C | 0.35
66 | A35U U43A | 0.71
67 | G36C A77G | 0.29
68 | G36A A75C | 0.28
69 | G36A A75U | 0.36
70 | G36C A56U | 0.13
71 | G36C A56G | 0.21
72 | A35U U51C | 0.46

Row | Variant | self-cleavage
73 | A35U U51G | 0.47
74 | A35U U51A | 0.56
75 | G36U U74C | 0.31
76 | G36A G61C | 0.16
77 | A35U U67G | 0.35
78 | A35U U67A | 0.24
79 | A35U U67C | 0.21
80 | A35U U66G | 0.13
81 | A35U U66A | 0.34
82 | A35U U66C | 0.25
83 | G36A U60A | 0.18
84 | G36A U60C | 0.13
85 | G36A C71U | 0.15
86 | G36C A47G | 0.15
87 | G36C A47C | 0.13
88 | G36A U48C | 0.19
89 | G36C A64G | 0.16
90 | G36A U76G | 0.4
91 | G36A U76C | 0.28
92 | G36A A65G | 0.17
93 | G36C U72G | 0.19
94 | A35U U72A | 0.31
95 | A35U U72C | 0.54
96 | A35U U72G | 0.54

Row | Variant | self-cleavage
97 | A35U U41G | 0.32
98 | A35U U41A | 0.3
99 | A35U U41C | 0.5
100 | A35U U60C | 0.24
101 | A35U U60A | 0.25
102 | A35U U60G | 0.17
103 | G36U C37U | 0.1
104 | A35U U74C | 0.86
105 | A35U U74A | 0.89
106 | G36U C59U | 0.16
107 | G36U U58C | 0.53
108 | G36U C71U | 0.1
109 | G36U U60C | 0.11
110 | G36U U48C | 0.17
111 | A35U U78A | 0.54
112 | A35U U78C | 0.52
113 | G36U U51G | 0.15
114 | G36C U67C | 0.18
115 | A35U U54G | 0.58
116 | A35U U54C | 0.5
117 | A35U U54A | 0.55
118 | G36A C39G | 0.16
119 | G36C U48C | 0.4
120 | A35U U48G | 0.26

Row | Variant | self-cleavage
121 | A35U U48A | 0.32
122 | A35U U48C | 0.32
123 | A35U U49A | 0.39
124 | A35U U49C | 0.27
125 | G36C U74C | 0.2
126 | G36A C62A | 0.41
127 | G36U G73A | 0.37
128 | G36A U51A | 0.4
129 | G36A U51C | 0.2
130 | G36A U51G | 0.19
131 | G36U G63A | 0.12
132 | G36U G63U | 0.12
133 | G36A A57G | 0.17
134 | G36C U58C | 0.14
135 | G36A | 0.29
136 | G36U | 0.24
137 | G36C | 0.31
138 | G36U U69C | 0.15
139 | G36U U69A | 0.2
140 | G36U U72C | 0.13
141 | G36U U41C | 0.3
142 | G36U U41A | 0.29
143 | G36C G55A | 0.12
144 | A35U G61U | 0.42

Row | Variant | self-cleavage
145 | A35U G61A | 0.27
146 | G36C U80C | 0.13
147 | G36C U80A | 0.12
148 | G36A U72A | 0.26
149 | G36A U72C | 0.25
150 | G36U G42A | 0.21
151 | G36U A45U | 0.19
152 | G36U A45G | 0.22
153 | A35U G70C | 0.34
154 | A35U G70A | 0.2
155 | A35U U58C | 0.27
156 | A35U U58A | 0.32
157 | A35U U58G | 0.15
158 | G36A A64G | 0.15
159 | G36A A64U | 0.14
160 | G36A U58C | 0.27
161 | G36A U58G | 0.19
162 | G36A U58A | 0.13
163 | G36A C44G | 0.14
164 | G36A G42U | 0.13
165 | G36U G61U | 0.13
166 | G36A A47G | 0.34
167 | G36A A47U | 0.13
